“And” between values parts separate entries of the source, which are not always exact repeats. Equal values may be shown once.
Biological target: SECRET domain (smallpox virus-encoded chemokine receptor domain) of the vTNFR CrmD encoded by ectrom (ectromelia virus)
Experiment: SPR

Which Kd does the source give for “chemokine domain of human CX3CL1 (residues 1-76), mutant R44A (from UniProt P78423 25-100) (domain or fragment)” here?
Its Kd is 15.7 µM and 16.6 µM and 16.1 µM.

Which Kd does the source give for “chemokine domain of human CX3CL1 (residues 1-76), mutant R47A (from UniProt P78423 25-100) (domain or fragment)” here?
The Kd was 34.5 µM and 38.4 µM and 36.5 µM.

“chemokine domain of human CX3CL1 (residues 1-76), mutant I19A (from UniProt P78423 25-100) (domain or fragment)” was tested. Which Kd did it give?
Its Kd is 1.28 µM and 0.641 µM and 0.96 µM.

What about the koff of the same substance?
Its koff is 0.00689 s⁻¹ and 0.00578 s⁻¹.

What about the kon of the same substance?
Its kon is 5380 M⁻¹ s⁻¹ and 9020 M⁻¹ s⁻¹.

How did the Kd turn out when “chemokine domain of human CX3CL1 (residues 1-76), mutant K18A (from UniProt P78423 25-100) (domain or fragment)” was run?
Its Kd is 10.9 µM and 11.5 µM and 10.3 µM.

What about the koff of the same substance?
Its koff is 0.0103 s⁻¹ and 0.00518 s⁻¹.

And the kon?
Its kon is 1000 M⁻¹ s⁻¹ and 450 M⁻¹ s⁻¹.

“chemokine domain of human CX3CL1 (residues 1-76), mutant F49A (from UniProt P78423 25-100) (domain or fragment)” was tested. Which Kd did it give?
The Kd was 3.75 µM and 4.64 µM and 4.2 µM.

Which Kd does the source give for “chemokine domain of human CX3CL1 (residues 1-76), mutant L23A (from UniProt P78423 25-100) (domain or fragment)” here?
The Kd was 3.36 µM and 5.62 µM and 4.49 µM.

From article PMC3145792
